Measured values published in article PMC8329861, “Structure of the unique tetrameric STENOFOLIA homeodomain bound with target promoter DNA”.

How the values were obtained:
STF-HD WT [1] = molecular target: T1, STF-HD WT (Medicago truncatula, UniProt G0ZGT3 85-190); experiment: X-ray crystallography (2.1 A); PAGE EMSA: 10 mM Tris-HCl pH 7.5, 100 mM KCl, 1 mM DTT, 2.5% glycerol, 5 ng/ul poly(dI-dC), 0.05% NP-40, 0.05 ug/ul protein, 5 fmol/ul DNA, room temperature 30; conditions: protein: recombinant; tags: 6xHis-MBP removed by TEV; chain copies: 4; blunt
T1 sequence: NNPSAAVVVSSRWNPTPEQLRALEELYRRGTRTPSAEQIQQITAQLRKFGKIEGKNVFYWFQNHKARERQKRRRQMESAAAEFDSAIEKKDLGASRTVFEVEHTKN

[2] = molecular target: T2, STF-HD L107M/L110M/L130M (STF_3M-HD) (Medicago truncatula, UniProt G0ZGT3 85-190, L107M;L110M;L130M); experiment: X-ray crystallography (SAD); SeMet protein; PAGE EMSA: 10 mM Tris-HCl pH 7.5, 100 mM KCl, 1 mM DTT, 2.5% glycerol, 5 ng/ul poly(dI-dC), 0.05% NP-40, 0.05 ug/ul protein, 5 fmol/ul DNA, room temperature 30; conditions: protein: recombinant, tags: 6xHis-MBP removed by TEV, chain copies: 4, blunt
T2 sequence: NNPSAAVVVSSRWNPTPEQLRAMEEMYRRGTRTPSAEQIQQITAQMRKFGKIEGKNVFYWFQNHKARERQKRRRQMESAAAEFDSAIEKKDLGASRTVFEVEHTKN

His-MBP-STF85-190 R96A = molecular target: T3, His-MBP-STF85-190 R96A (Medicago truncatula, UniProt G0ZGT3 85-190, R96A); experiment: EMSA; PAGE EMSA: 10 mM Tris-HCl pH 7.5, 100 mM KCl, 1 mM DTT, 2.5% glycerol, 5 ng/ul poly(dI-dC), 0.05% NP-40, 0.05 ug/ul protein, 5 fmol/ul DNA, room temperature 30; conditions: protein: recombinant; tags: N-terminal 6xHis-MBP; label: 3' biotin; blunt
T3 sequence: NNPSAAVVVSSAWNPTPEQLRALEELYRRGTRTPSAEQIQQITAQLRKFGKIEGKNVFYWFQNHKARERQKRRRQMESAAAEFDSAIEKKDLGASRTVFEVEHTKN

His-MBP-STF85-190 R113Q = molecular target: T4, His-MBP-STF85-190 R113Q (Medicago truncatula, UniProt G0ZGT3 85-190, R113Q); experiment: EMSA; not affected; PAGE EMSA: 10 mM Tris-HCl pH 7.5, 100 mM KCl, 1 mM DTT, 2.5% glycerol, 5 ng/ul poly(dI-dC), 0.05% NP-40, 0.05 ug/ul protein, 5 fmol/ul DNA, room temperature 30; conditions: protein: recombinant; tags: N-terminal 6xHis-MBP; label: 3' biotin; blunt
T4 sequence: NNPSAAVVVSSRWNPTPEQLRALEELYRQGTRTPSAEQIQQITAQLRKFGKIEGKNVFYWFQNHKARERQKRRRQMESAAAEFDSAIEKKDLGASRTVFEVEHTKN

His-MBP-STF85-190 R151A = molecular target: T5, His-MBP-STF85-190 R151A (Medicago truncatula, UniProt G0ZGT3 85-190, R151A); experiment: EMSA; binding retained; PAGE EMSA: 10 mM Tris-HCl pH 7.5, 100 mM KCl, 1 mM DTT, 2.5% glycerol, 5 ng/ul poly(dI-dC), 0.05% NP-40, 0.05 ug/ul protein, 5 fmol/ul DNA, room temperature 30; conditions: protein: recombinant; tags: N-terminal 6xHis-MBP; label: 3' biotin; blunt
T5 sequence: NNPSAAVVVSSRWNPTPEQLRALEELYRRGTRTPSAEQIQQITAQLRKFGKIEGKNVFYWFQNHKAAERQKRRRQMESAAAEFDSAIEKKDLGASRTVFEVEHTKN

STF-HD WT [3] = molecular target: T1, STF-HD WT; experiment: EMSA (agarose); stable complex at 1:4 DNA:protein; PAGE EMSA: 10 mM Tris-HCl pH 7.5, 100 mM KCl, 1 mM DTT, 2.5% glycerol, 5 ng/ul poly(dI-dC), 0.05% NP-40, 0.05 ug/ul protein, 5 fmol/ul DNA, room temperature 30; conditions: protein: recombinant; tags: 6xHis-MBP removed by TEV; chain copies: 4; label: 5' 6-FAM; blunt
STF-HD F167A/I171A = molecular target: T6, STF-HD F167A/I171A (Medicago truncatula, UniProt G0ZGT3 85-190, F167A;I171A); experiment: fluorescence polarization; no significant decrease vs WT; value only in figure; PAGE EMSA: 10 mM Tris-HCl pH 7.5, 100 mM KCl, 1 mM DTT, 2.5% glycerol, 5 ng/ul poly(dI-dC), 0.05% NP-40, 0.05 ug/ul protein, 5 fmol/ul DNA, room temperature 30; conditions: protein: recombinant; tags: 6xHis-MBP removed by TEV; label: 5' 6-FAM; blunt
T6 sequence: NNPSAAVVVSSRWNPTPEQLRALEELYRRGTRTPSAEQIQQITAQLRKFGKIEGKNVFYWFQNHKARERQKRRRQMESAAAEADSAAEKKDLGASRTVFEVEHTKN

STF-HD S169E = molecular target: T7, STF-HD S169E (Medicago truncatula, UniProt G0ZGT3 85-190, S169E); experiment: as above; conditions: protein: recombinant; tags: 6xHis-MBP removed by TEV; label: 5' 6-FAM; blunt
T7 sequence: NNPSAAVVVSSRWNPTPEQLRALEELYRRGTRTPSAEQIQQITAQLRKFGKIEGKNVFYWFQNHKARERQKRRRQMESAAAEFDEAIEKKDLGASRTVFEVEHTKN

B1: MtLOB39 22 bp (crystal) (dsDNA)
DNA 1: GCAAATTAATGATTTATTCAAG
DNA 2: CTTGAATAAATCATTAATTTGC
binding result (STF-HD WT [1]): binds | binding result [2]: binds

B2: MtAS2 22 bp biotin (dsDNA)
DNA 1: TGGATTTAATAATGAAGTGACA
DNA 2: TGTCACTTCATTATTAAATCCA
binding result (His-MBP-STF85-190 R96A): no binding | binding result (His-MBP-STF85-190 R113Q): binds

B3: TAAT probe (TAAT motifs) (dsDNA)
DNA 1: GCAAATTAATTATTTATTAAAG
DNA 2: CTTTAATAAATAATTAATTTGC
binding result (His-MBP-STF85-190 R151A): binds

B4: MtLOB39 22 bp FAM (dsDNA)
DNA 1: GCAAATTAATGATTTATTCAAG
DNA 2: CTTGAATAAATCATTAATTTGC
binding result (STF-HD WT [3]): binds | binding result (STF-HD F167A/I171A): binds | binding result (STF-HD S169E): binds

B5: MtAS2 22 bp FAM (dsDNA)
DNA 1: TGGATTTAATAATGAAGTGACA
DNA 2: TGTCACTTCATTATTAAATCCA
binding result (STF-HD WT [3]): binds
